Measurements: patent publication US20260232732A1 (FUNDACI INSTITUT DE RECERCA CONTRA LA LEUC MIA JOSEP …, published 2026)
Where no end group is shown, it is not given here. The star is where a group is joined. Biotin = O=C1N[C@H]2[C@H](CS[C@H]2CCCCC(=O)*)N1

T1: biotin-peptide MADDYGSEST (human)
T1 peptide: Biotin-MADDYGSEST

T2: biotin-peptide FNFTDFYCEK (human)
T2 peptide: Biotin-FNFTDFYCEK

T3: naked peptide MEDYVNFNFT (human)
T3 peptide: MEDYVNFNFT

T4: naked peptide TDFYCEKNNV (human)
T4 peptide: TDFYCEKNNV

T5: naked peptide MADDYGSEST (human)
T5 peptide: MADDYGSEST

T6: naked peptide TSPIPNMADD (human)
T6 peptide: TSPIPNMADD

T7: naked peptide SSMEDYVNFN (human)
T7 peptide: SSMEDYVNFN

T8: naked peptide IPNMADDYGS (human)
T8 peptide: IPNMADDYGS

T9: naked peptide DYGSESTSSM (human)
T9 peptide: DYGSESTSSM

T10: naked peptide SESTSSMEDY (human)
T10 peptide: SESTSSMEDY

T11: naked peptide YCEKNNVRQF (human)
T11 peptide: YCEKNNVRQF

T12: naked peptide TSSMEDYVNF (human)
T12 peptide: TSSMEDYVNF

T13: naked peptide MTPTDFTSPI (human)
T13 peptide: MTPTDFTSPI

T14: naked peptide KNNVRQFAS (human)
T14 peptide: KNNVRQFAS

T15: naked peptide YVNFNFTDFY (human)
T15 peptide: YVNFNFTDFY

T16: naked peptide FNFTDFYCEK (human)
T16 peptide: FNFTDFYCEK

T17: naked peptide TDFTSPIPNM (human)
T17 peptide: TDFTSPIPNM

T18: naked peptide SMEDYVNFNF (human)
T18 peptide: SMEDYVNFNF

T19: Pep1-48, N-terminal domain 1 of CCR9, amino acids 1 to 48 (human)
T19 construct: Chemically synthesized (Genscript), purity >75%; also called CCR9 N-terminal 1-48 peptide
T19 peptide: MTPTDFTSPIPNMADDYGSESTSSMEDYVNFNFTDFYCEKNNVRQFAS

T20: naked peptide 1a MTPTDFTSPIPNMADDYGSESTSS (human)
T20 construct: also called region 1-24
T20 peptide: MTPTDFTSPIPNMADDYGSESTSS

T21: naked peptide 1b MEDYVNFNFTDFYCEKNNVRQFAS (human)
T21 construct: also called region amino acids 25 to 48
T21 peptide: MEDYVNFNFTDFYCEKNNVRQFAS

T22: biotin-peptide MEDYVNFNFT (human)
T22 peptide: Biotin-MEDYVNFNFT

T23: biotin-peptide KNNVRQFAS (human)
T23 peptide: Biotin-KNNVRQFAS


Tests used:
[1] = molecular target: T1, biotin-peptide MADDYGSEST; test: ELISA biotin-peptide; scFv 10 ug/mL; repII
Procedure: (§1) The peptides were synthesized naked or with a N-terminal Biotin modification with a purity of >98%. All four scFvs were verified by ELISA that can be detected with anti-His antibodies. ELISA was performed for scFv-peptide binding validation. Briefly, naked peptides were coated (50 μg/mL) in 0.58M carbonate-bicarbonate buffer pH9.5, 100 μL/well, 4° C. O/N. Then after blocking (3% BSA-PBS, 300 μL/well 37° C. 1.5 h) and washing (PBS+Tween-20 0.05% v/v (0.05% PBST), wells were incubated with each purified scFv antibody at concentration of 1 μg/mL in PBS at 37° C. 1 h. After washing (0.05% PBST), wells were incubated with secondary antibodies (goat anti-His IgG-HRP) in PBS, 37° C., 30 min. After washing, and incubation with TMB substrate, reactions were stopped with 2M HCl and reading was quantified at OD450.
(§2) ELISA with biotin-conjugated peptides (5 μg/mL) was performed very similar to described above with minor modifications.

[2] = molecular target: T2, biotin-peptide FNFTDFYCEK; test: ELISA biotin-peptide; scFv 10 ug/mL; repII
Procedure: as §1, §2

naked peptide MEDYVNFNFT = molecular target: T3, naked peptide MEDYVNFNFT; test: ELISA naked peptide; scFv 1 ug/mL; repI
Procedure: as §1
(§3) Then a library of overlapping peptides were designed and constructed separately to produce 16 different peptides, covering full antigen sequence of total 48 aa. Peptide size was 10aa, with 7aa overlapping and ELISA screening of scFv against each peptide was performed in duplicate. Screening was performed using naked peptides in a standard plate or biotinylated peptides using avidin-plates.

naked peptide TDFYCEKNNV = molecular target: T4, naked peptide TDFYCEKNNV; test: ELISA naked peptide; scFv 1 ug/mL; repI
Procedure: as §1, §3

naked peptide MADDYGSEST = molecular target: T5, naked peptide MADDYGSEST; test: ELISA naked peptide; scFv 1 ug/mL; repI
Procedure: as §1, §3

naked peptide TSPIPNMADD = molecular target: T6, naked peptide TSPIPNMADD; test: ELISA naked peptide; scFv 1 ug/mL; repI
Procedure: as §1, §3

naked peptide SSMEDYVNFN = molecular target: T7, naked peptide SSMEDYVNFN; test: ELISA naked peptide; scFv 1 ug/mL; repI
Procedure: as §1, §3

naked peptide IPNMADDYGS = molecular target: T8, naked peptide IPNMADDYGS; test: ELISA naked peptide; scFv 1 ug/mL; repI
Procedure: as §1, §3

naked peptide DYGSESTSSM = molecular target: T9, naked peptide DYGSESTSSM; test: ELISA naked peptide; scFv 1 ug/mL; repI
Procedure: as §1, §3

naked peptide SESTSSMEDY = molecular target: T10, naked peptide SESTSSMEDY; test: ELISA naked peptide; scFv 1 ug/mL; repI
Procedure: as §1, §3

naked peptide YCEKNNVRQF = molecular target: T11, naked peptide YCEKNNVRQF; test: ELISA naked peptide; scFv 1 ug/mL; repI
Procedure: as §1, §3

naked peptide TSSMEDYVNF = molecular target: T12, naked peptide TSSMEDYVNF; test: ELISA naked peptide; scFv 1 ug/mL; repI
Procedure: as §1, §3

naked peptide MTPTDFTSPI = molecular target: T13, naked peptide MTPTDFTSPI; test: ELISA naked peptide; scFv 1 ug/mL; repI
Procedure: as §1, §3

naked peptide KNNVRQFAS = molecular target: T14, naked peptide KNNVRQFAS; test: ELISA naked peptide; scFv 1 ug/mL; repI
Procedure: as §1, §3

naked peptide YVNFNFTDFY = molecular target: T15, naked peptide YVNFNFTDFY; test: ELISA naked peptide; scFv 1 ug/mL; repI
Procedure: as §1, §3

naked peptide FNFTDFYCEK = molecular target: T16, naked peptide FNFTDFYCEK; test: ELISA naked peptide; scFv 1 ug/mL; repI
Procedure: as §1, §3

naked peptide TDFTSPIPNM = molecular target: T17, naked peptide TDFTSPIPNM; test: ELISA naked peptide; scFv 1 ug/mL; repI
Procedure: as §1, §3

naked peptide SMEDYVNFNF = molecular target: T18, naked peptide SMEDYVNFNF; test: ELISA naked peptide; scFv 1 ug/mL; repI
Procedure: as §1, §3

[3] = molecular target: T19, Pep1-48, N-terminal domain 1 of CCR9, …; test: BLI, scFv on NTA biosensor, 1:1 global fit
Procedure: The affinity between the CCR9-N-terminal domain 1 of CCR9 and the different scFvs was determined by Bio-Layer Interferometry (BLI), a technique that allows quantitative and qualitative measurement of biomolecular interactions in real-time. Briefly, scFv were immobilized onto NTA Biosensor (Sartorius) and quantification was performed in an Octet RED384 (Sartorius). scFv were dissolved in PBS (150 mM NaCl, 38 mM Na2HPO4, 12 mM NaH2PO4, pH 7.2) and a buffer containing 0.03% Tween-20 in PBS, pH 7.2 was used for baseline steps.

[4] = molecular target: T20, naked peptide 1a …; test: ELISA naked 24-mer; repII
[5] = molecular target: T21, naked peptide 1b …; test: ELISA naked 24-mer; repII
[6] = molecular target: T22, biotin-peptide MEDYVNFNFT; test: ELISA biotin-peptide; scFv 10 ug/mL; repI
Procedure: as §1
as §3, with “avidin-plates. The list of overlapping peptides was as follows:” for “avidin-plates.”
as §2

biotin-peptide KNNVRQFAS = molecular target: T23, biotin-peptide KNNVRQFAS; test: ELISA biotin-peptide; scFv 10 ug/mL; repI
Procedure: as §1
as §3, with “avidin-plates. The list of overlapping peptides was as follows:” for “avidin-plates.”
as §2

Row | OD450 [1] [OD] | OD450 [2] [OD] | OD450 (naked peptide MEDYVNFNFT) [OD] | OD450 (naked peptide TDFYCEKNNV) [OD] | OD450 (naked peptide MADDYGSEST) [OD] | OD450 (naked peptide TSPIPNMADD) [OD] | OD450 (naked peptide SSMEDYVNFN) [OD] | OD450 (naked peptide IPNMADDYGS) [OD] | OD450 (naked peptide DYGSESTSSM) [OD] | OD450 (naked peptide SESTSSMEDY) [OD] | OD450 (naked peptide YCEKNNVRQF) [OD] | OD450 (naked peptide TSSMEDYVNF) [OD] | OD450 (naked peptide MTPTDFTSPI) [OD] | OD450 (naked peptide KNNVRQFAS) [OD] | OD450 (naked peptide YVNFNFTDFY) [OD] | OD450 (naked peptide FNFTDFYCEK) [OD] | OD450 (naked peptide TDFTSPIPNM) [OD] | OD450 (naked peptide SMEDYVNFNF) [OD] | OD450 [4] [OD] | OD450 [5] [OD] | Binder | also measured
1 | 0.09 | 1.35 | 0.04 | 0.03 | 0.02 | 0.02 | 0.1 | 0.02 | 0.02 | 0.03 | 0.05 | 0.03 | 0.03 | 0.04 | 0.02 | 0.03 | 0.04 | 0.03 | 0.08 | 2.01 | Comparative antibody 2 (Comp-2) scFv, 243LO326 (VH SEQ ID NO: 51 and VL SEQ ID NO: 52 of WO 2022/195028 A2), His-tagged (scFv) scFv: QVQLVQSGAEVKKPGASVKVSCKASGYTFTSYWMHWVRQAPGQGLEWIGVIYPGNSDTRYNQKFKGRVTITRDTSASTAYMELSSLRSEDTAVYYCTRDYYSNYVYYYAMDYWGQGTTVTVSSGGGGSGGGGSGGGGSGGGGSDIVMTQTPLSLPVTPGEPASISCRSSQSLVHPNRNTYLHWYLQKPGQSPQLLIYKVSNRFSGVPDRFSGSGSGTDFTLKISRVEAEDVGVYYCSQSTHVPWTFGQGTKLEIKHHHHHH | Kd [3]: 61.4 nM; koff [3]: 0.0152 s⁻¹; kon [3]: 248000 M⁻¹ s⁻¹; OD450 [6]: 0.1 OD; OD450 (biotin-peptide KNNVRQFAS): 0.08 OD
2 | 0.07 | 0.05 | 0.05 | 0.03 | 0.02 | 0.05 | 0.07 | 0.01 | 0.02 | 0.03 | 0.02 | 0.03 | 0.05 | 0.02 | 0.05 | 0.02 | 0.03 | 0.02 | 0.1 | 0.06 | Comparative antibody 1 (Comp-1) scFv, SEQ ID NO: 10 from WO2023/037125 A1, His-tagged (scFv) scFv: QVQLKESGPGLVQPSQTLSLTCTVSGFSVASYDMHWVRLPPGKGLEWMGIIWANGNTHYNSGLKSRLSISRDTSKSQVFLKMNSLQTEDTAIYFCTRGGFAYWGQGTLVTVSSGGGGSGGGGSGGGGSGGGGSDVVMTQTPVSLSVSLGGQVSISCRSSQSLVHNNGNTYLSWYLQKPGQSPQLLIYKVSNRFSGVSDRFSGSGSGTDFTLKISRVEPDDLGVYYCGQGTQYPTFGGGTKLELKHHHHHH | OD450 [6]: 0.16 OD; OD450 (biotin-peptide KNNVRQFAS): 0.05 OD
3 | 0.16 | 0.06 | 0.84 | 0.05 | 0.03 | 0.03 | 0.9 | 0.02 | 0.02 | 0.03 | 0.04 | 0.03 | 0.04 | 0.03 | 0.03 | 0.04 | 0.05 | 1.54 | 0.08 | 2.24 | CCR9_HUM2 scFv (humanized anti-CCR9 scFv, SEQ ID NO: 17 with C-terminal 6xHis tag) (scFv) scFv: QVQLVQSGAEVKKPGASVKVSCTASGYSFTDYIIYWVKQAHGQSLEWMGYIDPNNYNTRYSQKFQGKVTITVDKSSTSAYMELNSLTSDDTAVYYCARDVYWGQGTTVTVSSGGGGSGGGGSGGGGSGGGGSDVVMTQTPLSLSVTPGQPASISCRSSQSLVHSNGKTYLQWYLQKPGQSPKLLIYKVSNRFSGVPDRFSGSGSGTDFTLKISRVEAEDVGVYFCAQSTHVWTFGGGTKVEIKRAHHHHHH | Kd [3]: 6.25 nM; koff [3]: 0.00168 s⁻¹; kon [3]: 268000 M⁻¹ s⁻¹; OD450 [6]: 2.56 OD; OD450 (biotin-peptide KNNVRQFAS): 0.07 OD
4 | 0.13 | 0.07 | 0.05 | 0.03 | 0.02 | 0.02 | 0.09 | 0.02 | 0.03 | 0.03 | 0.04 | 0.04 | 0.02 | 0.05 | 0.03 | 0.05 | 0.07 | 0.05 | 1.35 | 0.09 | Comparative antibody 3 (Comp-3) scFv, SR_92R (Somovilla-Crespo et al. 2018), His-tagged (scFv) scFv: EVKLEESGGGLVQPGGSMKLSCVASGFTFNKFWMNWVRQSPEKGLEWVAEIRLKSNNYATHYAESVKGRFTISRDDSKSSVYLQMNNLRAEDTGIYYCASDGWFAYWGQGTLVTVSAGGGGSGGGGSGGGGSGGGGSDVVMTQTPLSLPVSLGDQASISCRSSQSLVHSNGNTYLNWCLQRPGQSPKSLIYKVSNRFSGVPDRFSGSGSGTDFTLKISRVEAEDLGVYFCSQSTHFPRTFGGGTKLEIKRHHHHHH | Kd [3]: 33.1 nM; koff [3]: 0.012 s⁻¹; kon [3]: 364000 M⁻¹ s⁻¹; OD450 [6]: 0.1 OD; OD450 (biotin-peptide KNNVRQFAS): 0.09 OD
